Source: publication doi:10.1101/2021.10.29.466484, “Clamping of DNA shuts the condensin neck gate” (bioRxiv, 2021)

Experiments:
Smc2 = target: T1, Smc2 (S. cerevisiae, UniProt P38989 1-1170); assay: cryo-EM structure; condensin pentamer with relaxed circular DNA, ADP and BeF3; VPP and non-VPP datasets merged; maps at 8.75 and 8.95 Å; conditions: both partners purified
T1 construct: Smc2, SMC subunit of budding yeast (S. cerevisiae) condensin, wild type; Expressed from pGAL10-SMC2 together with the other subunits; Only the head domain and proximal coiled coil are resolved in the maps
T1 sequence: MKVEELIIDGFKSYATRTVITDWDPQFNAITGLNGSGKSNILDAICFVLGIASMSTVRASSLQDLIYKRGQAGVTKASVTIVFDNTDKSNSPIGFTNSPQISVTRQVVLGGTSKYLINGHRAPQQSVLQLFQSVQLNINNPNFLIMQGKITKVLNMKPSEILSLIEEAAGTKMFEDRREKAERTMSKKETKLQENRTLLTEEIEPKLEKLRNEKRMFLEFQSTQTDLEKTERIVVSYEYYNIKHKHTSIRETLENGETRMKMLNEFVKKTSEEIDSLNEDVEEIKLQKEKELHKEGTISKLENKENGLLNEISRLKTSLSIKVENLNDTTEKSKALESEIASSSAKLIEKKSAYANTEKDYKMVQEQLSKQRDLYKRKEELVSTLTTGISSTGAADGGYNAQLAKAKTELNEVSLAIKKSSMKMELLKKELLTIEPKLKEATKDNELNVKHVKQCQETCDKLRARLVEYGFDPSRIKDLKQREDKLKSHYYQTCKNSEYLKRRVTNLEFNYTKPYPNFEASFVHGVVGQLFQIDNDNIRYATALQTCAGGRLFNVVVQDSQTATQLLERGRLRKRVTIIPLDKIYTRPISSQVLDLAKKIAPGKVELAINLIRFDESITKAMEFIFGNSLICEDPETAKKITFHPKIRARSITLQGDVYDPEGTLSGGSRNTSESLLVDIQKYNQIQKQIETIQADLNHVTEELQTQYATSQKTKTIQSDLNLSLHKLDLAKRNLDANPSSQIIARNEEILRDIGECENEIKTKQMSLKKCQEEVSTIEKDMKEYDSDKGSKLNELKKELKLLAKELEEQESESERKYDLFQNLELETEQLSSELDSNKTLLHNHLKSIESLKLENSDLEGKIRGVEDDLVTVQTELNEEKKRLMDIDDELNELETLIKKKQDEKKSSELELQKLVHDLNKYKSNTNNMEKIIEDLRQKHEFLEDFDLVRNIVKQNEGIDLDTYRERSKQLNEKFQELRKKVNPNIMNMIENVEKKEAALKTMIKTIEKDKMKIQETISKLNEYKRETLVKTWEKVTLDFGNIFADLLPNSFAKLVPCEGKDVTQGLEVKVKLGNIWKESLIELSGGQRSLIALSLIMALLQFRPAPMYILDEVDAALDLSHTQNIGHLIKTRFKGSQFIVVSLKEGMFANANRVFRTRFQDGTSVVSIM

Ycs4 = target: T2, Ycs4 (S. cerevisiae, UniProt Q06156 1-1176); assay: as above; conditions: both partners purified
T2 construct: Ycs4, HAWK subunit of budding yeast (S. cerevisiae) condensin, wild type
T2 sequence: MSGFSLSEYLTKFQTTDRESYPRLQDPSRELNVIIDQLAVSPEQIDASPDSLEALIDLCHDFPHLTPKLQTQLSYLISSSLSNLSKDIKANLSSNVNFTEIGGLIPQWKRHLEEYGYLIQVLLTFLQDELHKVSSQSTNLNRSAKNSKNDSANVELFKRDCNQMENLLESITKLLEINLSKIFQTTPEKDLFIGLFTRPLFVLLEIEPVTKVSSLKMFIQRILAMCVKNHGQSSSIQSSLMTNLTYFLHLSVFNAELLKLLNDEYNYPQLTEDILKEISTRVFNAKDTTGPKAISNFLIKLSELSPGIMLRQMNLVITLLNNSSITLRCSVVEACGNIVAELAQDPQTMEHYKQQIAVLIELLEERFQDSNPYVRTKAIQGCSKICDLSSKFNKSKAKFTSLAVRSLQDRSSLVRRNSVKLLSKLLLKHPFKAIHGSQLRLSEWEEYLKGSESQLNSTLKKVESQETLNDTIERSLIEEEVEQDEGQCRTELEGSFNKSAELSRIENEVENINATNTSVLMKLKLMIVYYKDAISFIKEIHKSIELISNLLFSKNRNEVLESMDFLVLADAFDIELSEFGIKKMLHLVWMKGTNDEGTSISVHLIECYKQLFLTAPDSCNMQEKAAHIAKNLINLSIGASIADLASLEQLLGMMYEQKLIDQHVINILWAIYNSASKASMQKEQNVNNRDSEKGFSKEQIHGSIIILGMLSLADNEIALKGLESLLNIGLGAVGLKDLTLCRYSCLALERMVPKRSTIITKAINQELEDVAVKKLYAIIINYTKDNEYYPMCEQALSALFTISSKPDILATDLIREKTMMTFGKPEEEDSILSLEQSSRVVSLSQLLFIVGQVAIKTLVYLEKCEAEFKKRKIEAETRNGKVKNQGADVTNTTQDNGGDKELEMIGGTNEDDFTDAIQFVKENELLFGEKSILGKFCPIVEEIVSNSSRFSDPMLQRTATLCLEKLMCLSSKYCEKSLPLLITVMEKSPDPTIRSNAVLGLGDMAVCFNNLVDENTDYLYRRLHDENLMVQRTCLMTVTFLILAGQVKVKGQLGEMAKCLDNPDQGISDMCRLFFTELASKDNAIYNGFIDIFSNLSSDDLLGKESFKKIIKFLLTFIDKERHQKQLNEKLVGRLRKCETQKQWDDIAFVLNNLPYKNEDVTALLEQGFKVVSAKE

binding result (Smc2): binds
binding result (Ycs4): binds
B1: Brn1 (natural protein, S. cerevisiae)
chain: MTTQLRYENNDDDERVEYNLFTNRSTMMANFEEWIKMATDNKINSRNSWNFALIDYFYDLDVLKDGENNINFQKASATLDGCIKIYSSRVDSVTTETGKLLSGLAQRKTNGASNGDDSNGGNGEGLGGDSDEANIEIDPLTGMPISNDPDVNNTRRRVYNRVLETTLVEFETIKMKELDQELIIDPLFKKALVDFDEGGAKSLLLNTLNIDNTARVIFDASIKDTQNVGQGKLQRKEEELIERDSLVDDENEPSQSLISTRNDSTVNDSVISAPSMEDEILSLGMDFIKFDQIAVCEISGSIEQLRNVVEDINQAKDFIENVNNRFDNFLTEEELQAAVPDNAEDDSDGFDMGMQQELCYPDENHDNTSHDEQDDDNVNSTTGSIFEKDLMAYFDENLNRNWRGREHWKVRNFKKANLVNKESDLLEETRTTIGDTTDKNTTDDKSMDTKKKHKQKKVLEIDFFKTDDSFEDKVFASKGRTKIDMPIKNRKNDTHYLLPDDFHFSTDRITRLFIKPGQKMSLFSHRKHTRGDVSSGLFEKSTVSANHSNNDIPTIADEHFWADNYERKEQEEKEKEQSKEVGDVVGGALDNPFEDDMDGVDFNQAFEGTDDNEEASVKLDLQDDEDHKFPIRENKVTYSRVSKKVDVRRLKKNVWRSINNLIQEHDSRKNREQSSNDSETHTEDESTKELKFSDIIQGISKMYSDDTLKDISTSFCFICLLHLANEHGLQITHTENYNDLIVNYEDLATTQAAS
notes: Brn1, kleisin subunit of budding yeast (S. cerevisiae) condensin, wild type; also called kleisin Brn1; BRN1-HA3-His12
